This note sets out measurements from article PMC6239180.

The target of series [1] is hPcf11 (CF II subunit);hClp1 (CF II subunit or alone) (human;human) (UniProt O94913+Q92989). Briefly: filter binding.
Series [2] addresses T1, hClp1 (CF II subunit or alone) (human) (UniProt Q92989).
T1 sequence: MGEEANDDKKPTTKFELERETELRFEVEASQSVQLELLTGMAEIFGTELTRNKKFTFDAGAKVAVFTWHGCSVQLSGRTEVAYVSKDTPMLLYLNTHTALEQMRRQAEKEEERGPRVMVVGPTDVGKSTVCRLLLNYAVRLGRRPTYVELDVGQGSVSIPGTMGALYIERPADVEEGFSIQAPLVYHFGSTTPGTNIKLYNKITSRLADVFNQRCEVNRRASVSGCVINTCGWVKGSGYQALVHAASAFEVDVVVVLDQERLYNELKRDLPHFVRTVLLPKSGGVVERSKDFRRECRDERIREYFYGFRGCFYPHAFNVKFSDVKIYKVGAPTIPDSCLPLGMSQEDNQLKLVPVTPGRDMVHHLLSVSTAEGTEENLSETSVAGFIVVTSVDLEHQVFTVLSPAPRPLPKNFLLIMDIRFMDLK
Briefly: filter binding.

Sequence of hPcf11 (CF II subunit);hClp1 (CF II subunit or alone) (human;human) (O94913 whole entry, one chain of several): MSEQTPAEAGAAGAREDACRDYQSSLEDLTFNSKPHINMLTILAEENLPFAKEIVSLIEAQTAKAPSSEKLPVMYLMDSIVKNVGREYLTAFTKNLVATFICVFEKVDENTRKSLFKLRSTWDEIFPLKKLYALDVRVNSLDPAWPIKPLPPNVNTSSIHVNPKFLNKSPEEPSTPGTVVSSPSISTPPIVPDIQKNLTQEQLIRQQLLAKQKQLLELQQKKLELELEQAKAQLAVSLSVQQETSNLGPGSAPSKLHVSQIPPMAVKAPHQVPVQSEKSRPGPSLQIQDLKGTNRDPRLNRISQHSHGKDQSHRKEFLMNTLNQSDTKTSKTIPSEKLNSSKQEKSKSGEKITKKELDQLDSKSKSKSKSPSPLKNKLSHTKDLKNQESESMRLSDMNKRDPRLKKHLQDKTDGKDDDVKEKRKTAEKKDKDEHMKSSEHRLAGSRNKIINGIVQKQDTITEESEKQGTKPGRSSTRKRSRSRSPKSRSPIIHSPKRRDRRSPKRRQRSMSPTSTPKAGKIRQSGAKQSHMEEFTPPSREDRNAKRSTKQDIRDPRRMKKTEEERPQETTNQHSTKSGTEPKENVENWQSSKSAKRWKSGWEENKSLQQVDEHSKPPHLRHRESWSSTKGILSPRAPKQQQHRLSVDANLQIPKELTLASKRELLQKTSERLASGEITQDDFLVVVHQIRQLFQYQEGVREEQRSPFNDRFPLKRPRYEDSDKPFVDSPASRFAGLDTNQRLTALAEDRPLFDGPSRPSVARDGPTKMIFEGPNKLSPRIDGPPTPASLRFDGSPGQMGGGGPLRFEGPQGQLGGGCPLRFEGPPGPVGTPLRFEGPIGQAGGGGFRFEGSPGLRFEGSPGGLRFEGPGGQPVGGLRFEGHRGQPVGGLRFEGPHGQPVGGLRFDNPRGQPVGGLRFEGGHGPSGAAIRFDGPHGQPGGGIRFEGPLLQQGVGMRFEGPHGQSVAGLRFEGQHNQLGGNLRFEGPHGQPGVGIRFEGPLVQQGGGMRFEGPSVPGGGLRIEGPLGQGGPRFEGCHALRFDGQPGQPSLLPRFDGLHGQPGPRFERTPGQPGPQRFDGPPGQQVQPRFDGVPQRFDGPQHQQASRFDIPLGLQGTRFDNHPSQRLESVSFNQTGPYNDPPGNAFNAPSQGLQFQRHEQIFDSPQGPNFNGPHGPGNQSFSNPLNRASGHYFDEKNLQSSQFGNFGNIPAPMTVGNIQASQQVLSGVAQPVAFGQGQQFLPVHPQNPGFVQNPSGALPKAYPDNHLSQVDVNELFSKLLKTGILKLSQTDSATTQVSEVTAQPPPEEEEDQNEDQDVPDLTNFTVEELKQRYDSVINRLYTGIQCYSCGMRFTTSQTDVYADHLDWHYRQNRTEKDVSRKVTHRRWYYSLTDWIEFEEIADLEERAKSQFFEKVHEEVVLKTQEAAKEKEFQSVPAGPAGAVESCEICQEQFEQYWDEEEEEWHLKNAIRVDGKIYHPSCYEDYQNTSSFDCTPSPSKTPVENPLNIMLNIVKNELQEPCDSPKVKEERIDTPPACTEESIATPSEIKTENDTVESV

In turn, L3 RNA displayed a K half in series [1] of 0.9 nM.

Regarding SV40 late RNA, the K half was 0.4 nM in series [1] and 140 nM in series [2].
